B1: COVA1-16 Fab (Fab, V domains shown)
VH: QVQLVQSGAEVKKPGASVKVSCKASGYTFTSYYMHWVRQAPGQGLEWMGIINSSGGSTSYAQKFQGRVTMTRDTSTSTVYMELSSLRSEDTAVYYCARPPRNYYDRSGYYQRAEYFQHWGQGTLVTVSS
VL: DIQLTQSPSSLSASVGDRVTITCQASQDISNYLNWYQQRPGKAPKLLIYDASNLETGVPSRFSGSGSGTDFTFTISSLQPEDIATYYCQQYDNPPLTFGGGTKLEIK
B2: COVA1-16 Fab (Fab, V domains shown)
VH: B1 VH
VL: B1 VL

Legend:
[1] = molecular target: SARS-CoV-2 RBD, truncated version (residues 333 to 529) used for crystallization (SARS-CoV-2, UniProt P0DTC2); test: crystal structure; details: both partners purified
[2] = molecular target: SARS-CoV-2 RBD, truncated version (residues 333 to 529) (SARS-CoV-2, UniProt P0DTC2); test: crystal structure; details: both partners purified

| Binder | binding result [1] | binding result [2] |
| --- | --- | --- |
| B1 | binds |  |
| B2 |  | binds |
